Data as given in patent US7204989 (YANG SHENG TANG, dated 2007).

Target: the molecule itself
Assay: SDS-PAGE of thrombin-released pE2; self-association into a homodimer
Method: In addition, samples of the GE2 and pE2 peptides were heated at 100° C. for 3 minutes for subsequent analysis (Lanes 2 and 4) by SDS PAGE (A) and Western blotting (B and C). The molecular weight of these products were compared with markers (Lane 6)
The purified preparations of GE2 and pE2 were characterized by SDS PAGE and Western blotting techniques (FIG. 7). […] In addition, samples of the GE2 and pE2 peptides were heated at 100° C. for 3 minutes for subsequent analysis (Lanes 2 and 4) by SDS PAGE (A) and Western blotting (B and C).

B1: pE2 peptide, monomeric form (23 kD) (other)
chain: QLFYSRPVVSANGEPTVKLYTSVENAQQDKGIAIPHDIDLGESRVVIQDYDNQHEQDRPTPSPAPSRPFSVLRANDVLWLSLTAAEYDQSTYGSSTGPVYVSDSVTLVNVATGAQAVARSLDWTKVTLDGRPLSTIQQYSKTFFVLPLRGKLSFWEAGTTKAGYPYNYNTTASDQLLVENAAGHRVAISTYTTSLGAGPVSISAVAVLAPPPR
notes: Monomer obtained by dissociating the dimer; Also used for the self-association rows; also called pE2 monomer; heated pE2
B1: binds.
